This is an account of results in patent US20170320960A1 (AbbVie / Abbott, published 2017).

This experiment deals with T1, hMFI2 Tf-like Domain 1 (TLD1), amino acids 20-357, displayed on yeast (human, UniProt P08582 20-357).
T1 construct: also called TFLD1
T1 sequence: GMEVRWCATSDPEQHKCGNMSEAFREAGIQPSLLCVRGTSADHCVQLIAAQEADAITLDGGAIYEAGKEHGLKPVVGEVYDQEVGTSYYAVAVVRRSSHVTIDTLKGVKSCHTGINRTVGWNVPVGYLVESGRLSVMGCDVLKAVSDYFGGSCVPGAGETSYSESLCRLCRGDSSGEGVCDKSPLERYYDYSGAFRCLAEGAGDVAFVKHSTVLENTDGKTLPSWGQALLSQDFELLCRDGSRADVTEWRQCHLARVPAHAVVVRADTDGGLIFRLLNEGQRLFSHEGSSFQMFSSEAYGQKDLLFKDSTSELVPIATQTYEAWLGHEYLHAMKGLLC
Nature of the experiment: flow cytometry on yeast displaying hMFI2 domains.

B1: SC57.48 (antibody, V domains shown)
VH: GVQVVESGGGVVQPGGSLKLSCAASGFTFSSYAMSWVRQTPEKRLEWVAYLSRGGGSTYYLDTVKGRFTISRDNAKNTLYLQMNSLKSEDTAMYYCARLDGYNWYFDVWGAGTPVTVSS
VL: DIVMSQSPSSLAVSAGEKVTMSCKSSQSLLHSRIRKNYLAWYQQKPGQSPKLLIYWASTRESGVPDRFTGSGSGTDFTLTISSVQAEDLAVYYCKQSYNLFTFGGGTKLEIK
Regarding B1, the binding result is “binds”.
